From patent US20260132180

Sequence of MMP-2 protease (P08253 110-660): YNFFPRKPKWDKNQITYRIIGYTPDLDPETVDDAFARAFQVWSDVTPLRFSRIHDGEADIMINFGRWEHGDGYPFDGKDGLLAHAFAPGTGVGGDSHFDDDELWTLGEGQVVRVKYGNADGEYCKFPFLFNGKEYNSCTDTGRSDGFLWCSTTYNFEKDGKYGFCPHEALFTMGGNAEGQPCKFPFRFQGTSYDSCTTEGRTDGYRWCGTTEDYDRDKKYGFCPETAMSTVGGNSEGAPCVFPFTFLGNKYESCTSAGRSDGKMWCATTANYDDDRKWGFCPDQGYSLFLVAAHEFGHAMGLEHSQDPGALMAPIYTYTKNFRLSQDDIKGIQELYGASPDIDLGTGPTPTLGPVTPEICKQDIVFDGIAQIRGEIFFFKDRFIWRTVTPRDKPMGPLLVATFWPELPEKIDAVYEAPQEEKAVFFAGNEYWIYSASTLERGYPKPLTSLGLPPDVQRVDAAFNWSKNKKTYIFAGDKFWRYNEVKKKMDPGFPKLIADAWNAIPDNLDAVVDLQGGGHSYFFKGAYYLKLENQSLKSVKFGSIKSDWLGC
Sequence of Pro061 (chain, as listed by the source): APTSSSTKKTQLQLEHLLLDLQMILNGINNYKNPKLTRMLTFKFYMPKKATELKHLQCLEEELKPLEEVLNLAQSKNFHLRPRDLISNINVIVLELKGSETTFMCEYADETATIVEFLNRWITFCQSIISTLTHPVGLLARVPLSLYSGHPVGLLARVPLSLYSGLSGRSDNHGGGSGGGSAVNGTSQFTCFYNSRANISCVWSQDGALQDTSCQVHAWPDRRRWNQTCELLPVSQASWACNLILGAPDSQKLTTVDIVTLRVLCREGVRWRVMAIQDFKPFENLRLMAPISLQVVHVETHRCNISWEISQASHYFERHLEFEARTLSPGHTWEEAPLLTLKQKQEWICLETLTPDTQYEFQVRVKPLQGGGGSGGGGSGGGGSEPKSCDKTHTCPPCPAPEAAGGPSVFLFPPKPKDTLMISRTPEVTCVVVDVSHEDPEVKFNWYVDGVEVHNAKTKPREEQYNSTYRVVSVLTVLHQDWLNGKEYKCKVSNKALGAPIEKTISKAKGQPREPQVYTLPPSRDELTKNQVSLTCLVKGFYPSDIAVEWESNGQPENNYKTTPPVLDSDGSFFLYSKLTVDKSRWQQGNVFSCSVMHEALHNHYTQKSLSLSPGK
Sequence of Pro054 (chain, as listed by the source): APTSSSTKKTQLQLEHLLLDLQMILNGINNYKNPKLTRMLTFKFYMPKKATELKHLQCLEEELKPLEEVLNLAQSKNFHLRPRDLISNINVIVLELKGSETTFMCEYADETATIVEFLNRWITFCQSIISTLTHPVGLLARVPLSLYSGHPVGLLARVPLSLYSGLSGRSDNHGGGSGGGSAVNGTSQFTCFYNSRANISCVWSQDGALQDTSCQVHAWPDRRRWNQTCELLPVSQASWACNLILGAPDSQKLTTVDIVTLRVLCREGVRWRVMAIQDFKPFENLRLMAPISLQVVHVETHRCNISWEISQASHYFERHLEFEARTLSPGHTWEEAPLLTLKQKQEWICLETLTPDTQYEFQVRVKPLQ
Sequence of Pro064 (chain, as listed by the source): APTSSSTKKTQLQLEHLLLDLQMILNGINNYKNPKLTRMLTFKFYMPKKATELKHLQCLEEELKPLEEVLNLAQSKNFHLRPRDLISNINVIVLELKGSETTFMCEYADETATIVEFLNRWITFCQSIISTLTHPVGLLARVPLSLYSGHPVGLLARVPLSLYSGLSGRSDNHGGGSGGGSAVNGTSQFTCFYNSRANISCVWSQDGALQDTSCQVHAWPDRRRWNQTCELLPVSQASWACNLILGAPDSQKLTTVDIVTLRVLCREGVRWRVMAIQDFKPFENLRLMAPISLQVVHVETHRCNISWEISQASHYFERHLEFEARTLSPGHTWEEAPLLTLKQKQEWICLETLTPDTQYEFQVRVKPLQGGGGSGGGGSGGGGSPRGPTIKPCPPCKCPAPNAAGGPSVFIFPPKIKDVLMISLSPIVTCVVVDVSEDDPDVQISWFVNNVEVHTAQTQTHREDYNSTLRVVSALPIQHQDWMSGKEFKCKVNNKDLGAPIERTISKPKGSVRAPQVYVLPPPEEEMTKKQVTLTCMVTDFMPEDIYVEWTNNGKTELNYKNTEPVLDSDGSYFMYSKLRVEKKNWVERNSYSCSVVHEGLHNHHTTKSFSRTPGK

MMP-2 protease
Percentage of cleaved protein determined using WB after incubation with activated MMP-2 protease (Pro055): Pro054, Pro055, Pro061, and Pro064 were sensitive to MMP-2 digestion and protease-dependent removal of masking and half-life extension domains
Percentage of cleaved protein determined using WB after incubation with activated MMP-2 protease (Pro054): Pro054, Pro055, Pro061, and Pro064 were sensitive to MMP-2 digestion and protease-dependent removal of masking and half-life extension domains
Fraction of cleaved Pro101 determined by WB (Pro101): effective linker cleavage in Pro101
Percentage of cleaved protein determined using WB after incubation with activated MMP-2 protease (Pro064): Pro054, Pro055, Pro061, and Pro064 were sensitive to MMP-2 digestion and protease-dependent removal of masking and half-life extension domains
Percentage of cleaved protein determined using WB after incubation with activated MMP-2 protease (Pro061): Pro054, Pro055, Pro061, and Pro064 were sensitive to MMP-2 digestion and protease-dependent removal of masking and half-life extension domains
